Test results taken from article PMC12687421, “Characterisation of an allosteric site in PLCγ enzymes and implications for development of their specific inhibitors” (Biochemical Journal, 2025).

B1: PLCγ1^wt: full-length wild-type human PLCγ1 enzyme (protein, UniProt P19174 1-1290, looked up)
chain: MAGAASPCANGCGPGAPSDAEVLHLCRSLEVGTVMTLFYSKKSQRPERKTFQVKLETRQITWSRGADKIEGAIDIREIKEIRPGKTSRDFDRYQEDPAFRPDQSHCFVILYGMEFRLKTLSLQATSEDEVNMWIKGLTWLMEDTLQAPTPLQIERWLRKQFYSVDRNREDRISAKDLKNMLSQVNYRVPNMRFLRERLTDLEQRSGDITYGQFAQLYRSLMYSAQKTMDLPFLEASTLRAGERPELCRVSLPEFQQFLLDYQGELWAVDRLQVQEFMLSFLRDPLREIEEPYFFLDEFVTFLFSKENSVWNSQLDAVCPDTMNNPLSHYWISSSHNTYLTGDQFSSESSLEAYARCLRMGCRCIELDCWDGPDGMPVIYHGHTLTTKIKFSDVLHTIKEHAFVASEYPVILSIEDHCSIAQQRNMAQYFKKVLGDTLLTKPVEISADGLPSPNQLKRKILIKHKKLAEGSAYEEVPTSMMYSENDISNSIKNGILYLEDPVNHEWYPHYFVLTSSKIYYSEETSSDQGNEDEEEPKEVSSSTELHSNEKWFHGKLGAGRDGRHIAERLLTEYCIETGAPDGSFLVRESETFVGDYTLSFWRNGKVQHCRIHSRQDAGTPKFFLTDNLVFDSLYDLITHYQQVPLRCNEFEMRLSEPVPQTNAHESKEWYHASLTRAQAEHMLMRVPRDGAFLVRKRNEPNSYAISFRAEGKIKHCRVQQEGQTVMLGNSEFDSLVDLISYYEKHPLYRKMKLRYPINEEALEKIGTAEPDYGALYEGRNPGFYVEANPMPTFKCAVKALFDYKAQREDELTFIKSAIIQNVEKQEGGWWRGDYGGKKQLWFPSNYVEEMVNPVALEPEREHLDENSPLGDLLRGVLDVPACQIAIRPEGKNNRLFVFSISMASVAHWSLDVAADSQEELQDWVKKIREVAQTADARLTEGKIMERRKKIALELSELVVYCRPVPFDEEKIGTERACYRDMSSFPETKAEKYVNKAKGKKFLQYNRLQLSRIYPKGQRLDSSNYDPLPMWICGSQLVALNFQTPDKPMQMNQALFMTGRHCGYVLQPSTMRDEAFDPFDKSSLRGLEPCAISIEVLGARHLPKNGRGIVCPFVEIEVAGAEYDSTKQKTEFVVDNGLNPVWPAKPFHFQISNPEFAFLRFVVYEEDMFSDQNFLAQATFPVKGLKTGYRAVPLKNNYSEDLELASLLIKIDIFPAKENGDLSPFSGTSLRERGSDASGQLFHGRAREGSFESRYQQPFEDFRISQEHLADHFDSRERRAPRRTRVNGDNRL
modifications: full-length
notes: full-length wild-type human PLCγ1 enzyme
B2: K491D: PLCγ1 variant with K491D mutation in the nucleotide binding site (protein, UniProt P19174 2-1290, looked up, variant K491D)
1-phosphatidylinositol …: AGAASPCANGCGPGAPSDAEVLHLCRSLEVGTVMTLFYSKKSQRPERKTFQVKLETRQITWSRGADKIEGAIDIREIKEIRPGKTSRDFDRYQEDPAFRPDQSHCFVILYGMEFRLKTLSLQATSEDEVNMWIKGLTWLMEDTLQAPTPLQIERWLRKQFYSVDRNREDRISAKDLKNMLSQVNYRVPNMRFLRERLTDLEQRSGDITYGQFAQLYRSLMYSAQKTMDLPFLEASTLRAGERPELCRVSLPEFQQFLLDYQGELWAVDRLQVQEFMLSFLRDPLREIEEPYFFLDEFVTFLFSKENSVWNSQLDAVCPDTMNNPLSHYWISSSHNTYLTGDQFSSESSLEAYARCLRMGCRCIELDCWDGPDGMPVIYHGHTLTTKIKFSDVLHTIKEHAFVASEYPVILSIEDHCSIAQQRNMAQYFKKVLGDTLLTKPVEISADGLPSPNQLKRKILIKHKKLAEGSAYEEVPTSMMYSENDISNSIDNGILYLEDPVNHEWYPHYFVLTSSKIYYSEETSSDQGNEDEEEPKEVSSSTELHSNEKWFHGKLGAGRDGRHIAERLLTEYCIETGAPDGSFLVRESETFVGDYTLSFWRNGKVQHCRIHSRQDAGTPKFFLTDNLVFDSLYDLITHYQQVPLRCNEFEMRLSEPVPQTNAHESKEWYHASLTRAQAEHMLMRVPRDGAFLVRKRNEPNSYAISFRAEGKIKHCRVQQEGQTVMLGNSEFDSLVDLISYYEKHPLYRKMKLRYPINEEALEKIGTAEPDYGALYEGRNPGFYVEANPMPTFKCAVKALFDYKAQREDELTFIKSAIIQNVEKQEGGWWRGDYGGKKQLWFPSNYVEEMVNPVALEPEREHLDENSPLGDLLRGVLDVPACQIAIRPEGKNNRLFVFSISMASVAHWSLDVAADSQEELQDWVKKIREVAQTADARLTEGKIMERRKKIALELSELVVYCRPVPFDEEKIGTERACYRDMSSFPETKAEKYVNKAKGKKFLQYNRLQLSRIYPKGQRLDSSNYDPLPMWICGSQLVALNFQTPDKPMQMNQALFMTGRHCGYVLQPSTMRDEAFDPFDKSSLRGLEPCAISIEVLGARHLPKNGRGIVCPFVEIEVAGAEYDSTKQKTEFVVDNGLNPVWPAKPFHFQISNPEFAFLRFVVYEEDMFSDQNFLAQATFPVKGLKTGYRAVPLKNNYSEDLELASLLIKIDIFPAKENGDLSPFSGTSLRERGSDASGQLFHGRAREGSFESRYQQPFEDFRISQEHLADHFDSRERRAPRRTRVNGDNRL

Assay: Specific activity of PLC variants in assay 2 (A2)
Format: biochemical
Conditions: aldol substrate in solution
Experimental: The effect of nucleotide inhibition on PLC activity was measured using either a membrane-based assay with the fluorescent substrate (XY-69) incorporated into liposomes or using a small soluble substrate, Aldol 518 myo-inositol-1-phosphate (Aldol). Both methods utilised the same PLC assay buffer [20 mM Hepes-KOH, 70 mM KCl, 3 mM EGTA, 2.97 mM CaCl2, 2 mM TCEP and fatty acid-free bovine serum albumin (FAF-BSA; 50 μg/ml) (pH 7.5)]. Both assays were performed in low volume black 384-well plates (Greiner Bio-One), were composed of a final assay volume of 20 μl and were monitored in a Clariostar plate reader (BMG Labtech). […] The excitation and emission wavelengths were 588–15 and 642–20, respectively.
A CLARIOstar plate reader (BMG Labtech) was used to measure the production of the fluorescent product. The excitation and emission wavelengths were 485–15 and 520–20, respectively. Each experiment was performed in at least triplicate; in many cases, nine-fold replicates were generated. The enzyme progress curves were plotted for each concentration of nucleotide using Graphpad Prism software. The initial linear rate of product generation was calculated and converted to a % inhibition when compared with the rate of PLC activity in the absence of nucleotide. […]

| Molecule | Specific Activity A2 |
| --- | --- |
| B1 | 18606 ± 685 RFU/min/mg |
| B2 | 18974 ± 796 RFU/min/mg |
